The numbers were not newly measured in publication PMC3982939, which cites them from elsewhere.

pKd: −log10 of the molar value.

In general, pKd refers to −log10 of the Kd, conventionally taken in molar units.

For data set [1], the target named is uroguanylin (Homo sapiens) (UniProt Q16661).
The next data set has as its target guanylin (Homo sapiens) (UniProt Q02747).

“Guanylyl cyclase C ECD (from UniProt P25092)”: the results for the pKd (in data set [1]; in the data set with guanylin (Homo sapiens)) were 9.00 and 8.00, respectively.
